[ ]: non-standard residue; d: D form. pGlu = O=C1CC[C@@H](C(=O)O)N1
B1: human DRL90h-FLAG fusion protein, 7.1 kDa molecule cleaved at the furin cleavage site (other)
chain: [pGlu]DRPSKPGFPDEPMREYMHHLLALEHRAEEQFLEHWLNPHCKPHCDRNRIHPVVDYKDDDDK
modifications: also: a pair of intramolecular disulfide bonds
notes: C-terminal processing product of the COS-7 DRL90h-FLAG fusion; The FLAG tail is inferred from detection and purification with anti-FLAG antibody; also called major component of the human DRL90 gene product

Legend:
[1] = target: the molecule itself; test: non-reducing versus reducing SDS-PAGE and anti-FLAG Western blot; disulfide-linked dimer (approx. 21 kDa)
Description: (§1) Transfection was carried out using 1 µg/well of the pDRL90h-FLAG DNA constructed in Example 3 and Effectene (Qiagen). Twenty-four hours after the transfection, the medium was replaced with serum-free DMEM medium supplemented with 1 ml of 0.1 mM pABSF (Wako Purechemical Industries) and 0.05% CHAPS (Dojin Chemical). Then, the cells were cultured further for 48 hr. The culture supernatant was transferred into Eppendorf sample tubes and centrifuged. After removal of floating cells, the supernatant was concentrated to about 1/10 in volume with Centricon YM-3 ultrafiltration membrane (Millipore). An equal volume of Tricine SDS-PAGE sample buffer (TEFCO) was added to the resultant concentrated culture supernatant. With respect to the cells, they were washed in 1 ml of PBS (Gibco BRL) twice and then 500 l of Tricine SDS-PAGE sample buffer was added thereto. […] After blocking the nitrocellulose filter with PBS containing 0.1% Tween 20 and 50% Block Ace (Snow Brand Milk Products), human DRL90-FLAG fusion protein was detected with antibodies. […] For luminescence, ECL Western Blotting Kit (Amersham Pharmacia Biotech) was used. Chemiluminescence was detected with Hyperfilm ECL (Amersham Pharmacia Biotech). […] The fusion protein in cell fractions was detected as a polypeptide of approx. 9.2 kDa under reducing conditions and as a polypeptide of approx. 21 kDa under non-reducing conditions.

[2] = target: B1; test: non-reducing versus reducing SDS-PAGE and anti-FLAG Western blot; disulfide-linked dimer of the uncleaved and cleaved forms
Description: as §1

[3] = target: the molecule itself; test: non-reducing versus reducing SDS-PAGE and anti-FLAG Western blot; disulfide-linked dimer of the cleaved form
Description: as §1

binding result [2] | Binder | binding result [1] | binding result [3]
binds | human DRL90h-FLAG fusion protein, 9.2 kDa molecule not cleaved at the furin cleavage site (other, Expressed in COS-7 cells from pDRL90h-FLAG; It was detected on Western blots after SDS-PAGE; also called human DRL90-FLAG fusion protein) SPILTEKQAKQLLRSRRQDRPSKPGFPDEPMREYMHHLLALEHRAEEQFLEHWLNPHCKPHCDRNRIHPVVDYKDDDDK | binds | –
– | B1 | – | binds

From patent US20040053276A1 (published 2004)
